Test results taken from PMC3407131, “Annexin A2 Is a Natural Extrahepatic Inhibitor of the PCSK9-Induced LDL Receptor Degradation” (PLoS ONE, 2012).
Each block holds one binder with its values, some of them ahead of it.

Biological target: T1, biotin-labeled human PCSK9 protein (residues 30–692) (human, UniProt Q8NBP7 30-692, biotin-labeled (site not stated))
T1 construct: PCSK9, human, residues 30–692; written as one chain; Held on streptavidin donor beads by the biotin; also called biotinylated PCSK9; full length PCSK9; source: baculovirus expression, purified recombinant
Test: AlphaScreen or HTRF; competition: biotin-PCSK9 (15 nM) and His-LDLR ectodomain (15 nM) mixed with increasing AnxA2 peptide, 60 min at 20°C in 25 mM Hepes pH 7.4, 100 mM NaCl, 0.5 mM CaCl2, 0.1% BSA; streptavidin donor and nickel chelate acceptor beads, overnight at 20°C
Conditions: both partners purified

T1 sequence (Q8NBP7 30-692): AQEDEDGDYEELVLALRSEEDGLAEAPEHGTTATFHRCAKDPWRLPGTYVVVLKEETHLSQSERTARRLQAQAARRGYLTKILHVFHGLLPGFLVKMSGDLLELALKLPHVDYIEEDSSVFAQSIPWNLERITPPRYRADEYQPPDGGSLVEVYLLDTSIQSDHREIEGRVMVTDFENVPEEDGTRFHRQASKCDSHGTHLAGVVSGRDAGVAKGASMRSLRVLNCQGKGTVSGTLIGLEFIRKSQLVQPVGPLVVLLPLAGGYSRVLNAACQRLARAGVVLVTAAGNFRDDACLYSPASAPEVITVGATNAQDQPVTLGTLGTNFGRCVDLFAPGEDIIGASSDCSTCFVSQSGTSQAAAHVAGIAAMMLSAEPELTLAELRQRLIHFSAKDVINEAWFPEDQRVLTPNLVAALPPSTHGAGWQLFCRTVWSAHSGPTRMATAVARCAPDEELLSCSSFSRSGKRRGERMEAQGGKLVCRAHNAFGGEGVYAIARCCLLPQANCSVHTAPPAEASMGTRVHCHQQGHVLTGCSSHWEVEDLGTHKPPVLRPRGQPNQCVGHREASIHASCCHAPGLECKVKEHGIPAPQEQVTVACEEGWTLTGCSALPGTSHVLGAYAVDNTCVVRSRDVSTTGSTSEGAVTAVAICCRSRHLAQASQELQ

- IC50: ~600 nM
B1: 73 aa peptide corresponding to the AnxA2 R1 domain (residues 25–97) (peptide, UniProt P07355 25-97, looked up)
peptide: GSVKAYTNFDAERDALNIETAIKTKGVDEVTIVNILTNRSNAQRQDIAFAYQRRTKKELASALKSALSGHLET
modifications: N-terminus acetylated; C-terminal amide
notes: annexin A2 (AnxA2), residues 25–97 of the R1 domain; also called 73-mer AnxA2 peptide (aa 25–97); long peptide form; source: synthetic peptide (solid phase synthesis, RP-HPLC purified)

- fold lower apparent potency than the peptide 25–97: ~20 fold
B2: intermediate 49 aa AnxA2 peptide (residues 49–97) (peptide, UniProt P07355 49-97, looked up)
peptide: Ac-KGVDEVTIVNILTNRSNAQRQDIAFAYQRRTKKELASALKSALSGHLET-NH2
notes: annexin A2 (AnxA2), residues 49–97 of the R1 domain; also called intermediate length peptide (49–97); aa 49–97 peptide; source: synthetic peptide (solid phase synthesis, RP-HPLC purified)
